Biological target: T1, unkl_human UNKL (UniProt Q9H9P5)
T1 sequence: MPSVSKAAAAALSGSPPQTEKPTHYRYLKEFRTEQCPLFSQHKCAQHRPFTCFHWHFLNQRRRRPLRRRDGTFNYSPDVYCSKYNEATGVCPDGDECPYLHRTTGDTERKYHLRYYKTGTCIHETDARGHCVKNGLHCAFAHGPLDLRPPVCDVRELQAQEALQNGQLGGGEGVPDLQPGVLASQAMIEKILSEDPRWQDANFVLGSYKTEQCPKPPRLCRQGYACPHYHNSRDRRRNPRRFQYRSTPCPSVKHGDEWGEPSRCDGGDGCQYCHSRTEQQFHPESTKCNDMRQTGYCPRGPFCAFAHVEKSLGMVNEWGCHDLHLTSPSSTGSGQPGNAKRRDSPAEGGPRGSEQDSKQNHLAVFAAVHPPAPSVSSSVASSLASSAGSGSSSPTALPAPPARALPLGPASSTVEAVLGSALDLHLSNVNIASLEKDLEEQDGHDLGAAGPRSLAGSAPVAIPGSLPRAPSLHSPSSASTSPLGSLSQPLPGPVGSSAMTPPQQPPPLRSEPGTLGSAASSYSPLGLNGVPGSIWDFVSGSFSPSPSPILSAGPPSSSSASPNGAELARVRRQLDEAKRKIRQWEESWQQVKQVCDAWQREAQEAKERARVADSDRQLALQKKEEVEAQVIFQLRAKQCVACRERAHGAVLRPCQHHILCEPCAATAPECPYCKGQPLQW

Ras-related C3 botulinum toxin substrate 1 (Homo sapiens) (from UniProt P63000) Q61L
effect of a mutation on the interaction: increasing interaction

Reference: IntAct's records for PubMed 20148946
